# In patent publication US20150344570A1 (published 2015):
# Target: T1, FcγRIa (human, UniProt P12314 16-292)
# T1 construct: extracellular domain; also called FcgRI; 1a
# Assay: SPR (Biacore); He Ab relative to HeCon Ab = 100
# Description: Analysis of interaction between objective antibody and the FcγR was carried out using Biacore T100 (GE Healthcare). HBS-EP+ (GE Healthcare) was used as the running buffer, and the measurement temperature was set to 25° C. Chips produced by immobilizing the antigen peptide by the amine coupling method to a Series S Sencor Chip CM5 (GE Healthcare), or alternatively, chips produced by allowing preliminarily biotinylated antigen peptides to interact with and immobilize onto a Series S Sensor Chip SA (certified) (GE Healthcare) were used. Antibodies of interest were captured onto an antigen peptide-immobilized chip, and allowed to interact to each FcγR diluted with running buffer. To regenerate and repeatedly use the chip, the antibodies captured on the chip were washed off by reacting 10 mM glycine-HCl, pH 1.5.
# T1 sequence (P12314 16-292): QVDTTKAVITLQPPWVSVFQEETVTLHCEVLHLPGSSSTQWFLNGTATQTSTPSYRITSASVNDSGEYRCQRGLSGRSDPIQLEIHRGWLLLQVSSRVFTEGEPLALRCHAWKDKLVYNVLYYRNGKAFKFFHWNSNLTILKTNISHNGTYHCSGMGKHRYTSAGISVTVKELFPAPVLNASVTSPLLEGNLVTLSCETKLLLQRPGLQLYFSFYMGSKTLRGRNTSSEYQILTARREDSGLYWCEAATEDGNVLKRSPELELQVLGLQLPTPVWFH
row,Binder,He/Con_1a
1,"GpH7-A5/GpH7-B3 variant K326_18N/GpL16-k0 (antibody, human IgG1, kappa, also called He Ab K326_18N) heavy 1: not shown heavy 2: not shown light: DIVMTQSPLSLPVTPGEPASISCQASESLVHSNRNTYLHWYLQKPGQSPQLLIYKVSNRFSGVPDRFSGSGSGTDFTLKISRVEAEDVGVYYCSQNTHVPPTFGQGTKVEIERTVAAPSVFIFPPSDEQLKSGTASVVCLLNNFYPREAKVQWKVDNALQSGNSQESVTEQDSKDSTYSLSSTLTLSKADYEKHKVYACEVTHQGLSSPVTKSFNRGEC",105 % of control
2,"GpH7-A5/GpH7-B3 variant K334_10E/GpL16-k0 (antibody, human IgG1, kappa, also called He Ab K334_10E) heavy 1: not shown heavy 2: not shown light: DIVMTQSPLSLPVTPGEPASISCQASESLVHSNRNTYLHWYLQKPGQSPQLLIYKVSNRFSGVPDRFSGSGSGTDFTLKISRVEAEDVGVYYCSQNTHVPPTFGQGTKVEIERTVAAPSVFIFPPSDEQLKSGTASVVCLLNNFYPREAKVQWKVDNALQSGNSQESVTEQDSKDSTYSLSSTLTLSKADYEKHKVYACEVTHQGLSSPVTKSFNRGEC",110 % of control
3,"GpH7-A5/GpH7-B3 variant K334_06M/GpL16-k0 (antibody, human IgG1, kappa, also called He Ab K334_06M) heavy 1: not shown heavy 2: not shown light: DIVMTQSPLSLPVTPGEPASISCQASESLVHSNRNTYLHWYLQKPGQSPQLLIYKVSNRFSGVPDRFSGSGSGTDFTLKISRVEAEDVGVYYCSQNTHVPPTFGQGTKVEIERTVAAPSVFIFPPSDEQLKSGTASVVCLLNNFYPREAKVQWKVDNALQSGNSQESVTEQDSKDSTYSLSSTLTLSKADYEKHKVYACEVTHQGLSSPVTKSFNRGEC",105 % of control
4,"GpH7-A5/GpH7-B3 variant K334_12R/GpL16-k0 (antibody, human IgG1, kappa, also called He Ab K334_12R) heavy 1: not shown heavy 2: not shown light: DIVMTQSPLSLPVTPGEPASISCQASESLVHSNRNTYLHWYLQKPGQSPQLLIYKVSNRFSGVPDRFSGSGSGTDFTLKISRVEAEDVGVYYCSQNTHVPPTFGQGTKVEIERTVAAPSVFIFPPSDEQLKSGTASVVCLLNNFYPREAKVQWKVDNALQSGNSQESVTEQDSKDSTYSLSSTLTLSKADYEKHKVYACEVTHQGLSSPVTKSFNRGEC",104 % of control

# More lines, now with the values ahead:
row,He/Con_1a,Binder
1,104 % of control,"GpH7-A5/GpH7-B3 variant L234_06M/GpL16-k0 (antibody, human IgG1, kappa, also called He Ab L234_06M) heavy 1: not shown heavy 2: not shown light: DIVMTQSPLSLPVTPGEPASISCQASESLVHSNRNTYLHWYLQKPGQSPQLLIYKVSNRFSGVPDRFSGSGSGTDFTLKISRVEAEDVGVYYCSQNTHVPPTFGQGTKVEIERTVAAPSVFIFPPSDEQLKSGTASVVCLLNNFYPREAKVQWKVDNALQSGNSQESVTEQDSKDSTYSLSSTLTLSKADYEKHKVYACEVTHQGLSSPVTKSFNRGEC"
2,103 % of control,"GpH7-A5/GpH7-B3 variant L234_07I/GpL16-k0 (antibody, human IgG1, kappa, also called He Ab L234_07I) heavy 1: not shown heavy 2: not shown light: DIVMTQSPLSLPVTPGEPASISCQASESLVHSNRNTYLHWYLQKPGQSPQLLIYKVSNRFSGVPDRFSGSGSGTDFTLKISRVEAEDVGVYYCSQNTHVPPTFGQGTKVEIERTVAAPSVFIFPPSDEQLKSGTASVVCLLNNFYPREAKVQWKVDNALQSGNSQESVTEQDSKDSTYSLSSTLTLSKADYEKHKVYACEVTHQGLSSPVTKSFNRGEC"
3,101 % of control,"GpH7-A5/GpH7-B3 variant L234_04F/GpL16-k0 (antibody, human IgG1, kappa, also called He Ab L234_04F) heavy 1: not shown heavy 2: not shown light: DIVMTQSPLSLPVTPGEPASISCQASESLVHSNRNTYLHWYLQKPGQSPQLLIYKVSNRFSGVPDRFSGSGSGTDFTLKISRVEAEDVGVYYCSQNTHVPPTFGQGTKVEIERTVAAPSVFIFPPSDEQLKSGTASVVCLLNNFYPREAKVQWKVDNALQSGNSQESVTEQDSKDSTYSLSSTLTLSKADYEKHKVYACEVTHQGLSSPVTKSFNRGEC"
4,104 % of control,"GpH7-A5/GpH7-B3 variant L234_03V/GpL16-k0 (antibody, human IgG1, kappa, also called He Ab L234_03V) heavy 1: not shown heavy 2: not shown light: DIVMTQSPLSLPVTPGEPASISCQASESLVHSNRNTYLHWYLQKPGQSPQLLIYKVSNRFSGVPDRFSGSGSGTDFTLKISRVEAEDVGVYYCSQNTHVPPTFGQGTKVEIERTVAAPSVFIFPPSDEQLKSGTASVVCLLNNFYPREAKVQWKVDNALQSGNSQESVTEQDSKDSTYSLSSTLTLSKADYEKHKVYACEVTHQGLSSPVTKSFNRGEC"
5,106 % of control,"GpH7-A5/GpH7-B3 variant K334_20W/GpL16-k0 (antibody, human IgG1, kappa, also called He Ab K334_20W) heavy 1: not shown heavy 2: not shown light: DIVMTQSPLSLPVTPGEPASISCQASESLVHSNRNTYLHWYLQKPGQSPQLLIYKVSNRFSGVPDRFSGSGSGTDFTLKISRVEAEDVGVYYCSQNTHVPPTFGQGTKVEIERTVAAPSVFIFPPSDEQLKSGTASVVCLLNNFYPREAKVQWKVDNALQSGNSQESVTEQDSKDSTYSLSSTLTLSKADYEKHKVYACEVTHQGLSSPVTKSFNRGEC"
